Series [1] relates to HeLa Kyoto. The series is described as follows: solubility in G1/S (NP-40 vs SDS abundance) (log2 ratio); higher = more soluble. Conditions: cell cycle stage: G1/S.
In series [2] the test system is HeLa Kyoto. Briefly: melting temperature (median over replicates), in situ; higher = more thermally stable.
For series [3], the system named is HeLa Kyoto. The series is described as follows: thermal stability score vs G1/S (z-score of summed log2 fold changes over temperatures); higher = more thermally stable than in G1/S.
Series [4] deals with HeLa Kyoto. The series is described as follows: solubility change mitosis vs G1/S (difference of NP-40 vs SDS log2 ratios) (log2 ratio difference); higher = more soluble in mitosis.
[5] abbreviates: cell cycle stage: early G1 (4.5 h after nocodazole release).
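For melting temperature (median over replicates), in situ in this document: HeLa Kyoto cells synchronized by double thymidine or nocodazole block, proteins quantified by TMT10plex mass spectrometry, three independent biological replicates.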
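For solubility change mitosis vs G1/S (difference of NP-40 vs SDS log2 ratios) in this document: synchronized HeLa Kyoto cells (double thymidine block for G1/S, nocodazole release for mitosis), protein amounts in NP-40 versus SDS lysates quantified by mass spectrometry, three biological replicates.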
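For solubility in G1/S (NP-40 vs SDS abundance) in this document: HeLa Kyoto cells arrested at G1/S by double thymidine block, proteins quantified by TMT10plex mass spectrometry in mild NP-40 versus SDS extracts, three biological replicates.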
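For thermal stability score vs G1/S (z-score of summed log2 fold changes over temperatures) in this document: synchronized HeLa Kyoto cells, proteins quantified by TMT10plex mass spectrometry, three biological replicates, mitosis taken 0.5 h after nocodazole release, G1/S directly after double thymidine block.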

For the sequence “MTATVENLTFQKDTLGNAVDKNTSRLELRSYSLAGRHGSTEPLVLAWSSQFRRLTWGCALDALHRSPCVAASQHGVTHLIRSSRTPHSTRCRKEDAQPGHHGNGAASVTAQARGQRSVLQVPLPVPRSCLFSESFVVSVSSQSRFLASVPGTGVQRSTAADMAASTAAGKQRIPKVAKVKNKAPAEVQITAEQLLREAKERELELLPPPPQQKITDEEELNDYKLRKRKTFEDNIRKNRTVISNWIKYAQWEESLKEIQRARSIYERALDVDYRNITLWLKYAEMEMKNRQVNHARNIWDRAITTLPRVNQFWYKYTYMEEMLGNVAGARQVFERWMEWQPEEQAWHSYINFELRYKEVDRARTIYERFVLVHPDVKNWIKYARFEEKHAYFAHARKVYERAVEFFGDEHMDEHLYVAFAKFEENQKEFERVRVIYKYALDRISKQDAQELFKNYTIFEKKFGDRRGIEDIIVSKRRFQYEEEVKANPHNYDAWFDYLRLVESDAEAEAVREVYERAIANVPPIQEKRHWKRYIYLWINYALYEELEAKDPERTRQVYQASLELIPHKKFTFAKMWILYAQFEIRQKNLSLARRALGTSIGKCPKNKLFKVYIELELQLREFDRCRKLYEKFLEFGPENCTSWIKFAELETILGDIDRARAIYELAISQPRLDMPEVLWKSYIDFEIEQEETERTRNLYRRLLQRTQHVKVWISFAQFELSSGKEGSLTKCRQIYEEANKTMRNCEEKEERLMLLESWRSFEEEFGTASDKERVDKLMPEKVKKRRKVQTDDGSDAGWEEYFDYIFPEDAANQPNLKLLAMAKLWKKQQQEKEDAEHHPDEDVDESES [CRNKL1]”, the “solubility in G1/S (log2)” value in the series on HeLa Kyoto [1] was -0.64. In addition, the melting temperature in the series with HeLa Kyoto [2] (cell cycle stage: G1/S) was 47.4 °C; in the series on HeLa Kyoto [2] (cell cycle stage: mitosis), 48 °C. Further, the thermal stability score in the series on HeLa Kyoto [3] (setting [5]) was 1.73; in the series on HeLa Kyoto [3] (cell cycle stage: mitosis), 2.31. Besides, the “solubility change mitosis (log2)” value in the series on HeLa Kyoto [4] amounted to 0.252.

For the sequence “MSELEQLRQEAEQLRNQIRDARKACGDSTLTQITAGLDPVGRIQMRTRRTLRGHLAKIYAMHWGTDSRLLVSASQDGKLIIWDSYTTNKVHAIPLRSSWVMTCAYAPSGNFVACGGLDNICSIYSLKTREGNVRVSRELPGHTGYLSCCRFLDDNQIITSSGDTTCALWDIETGQQTVGFAGHSGDVMSLSLAPDGRTFVSGACDASIKLWDVRDSMCRQTFIGHESDINAVAFFPNGYAFTTGSDDATCRLFDLRADQELLMYSHDNIICGITSVAFSRSGRLLLAGYDDFNCNIWDAMKGDRAGVLAGHDNRVSCLGVTDDGMAVATGSWDSFLKIWN [GNB2]”, in the series on HeLa Kyoto [1], the “solubility in G1/S (log2)” value was -0.771. Also, the melting temperature in the series with HeLa Kyoto [2] (cell cycle stage: G1/S) was determined as 55.6 °C; in the series with HeLa Kyoto [2] (cell cycle stage: mitosis) it was 55.5 °C. Moreover, the thermal stability score was -0.768 in the series with HeLa Kyoto [3] (setting [5]) and -0.878 in the series on HeLa Kyoto [3] (cell cycle stage: mitosis). Also, the “solubility change mitosis (log2)” value in the series on HeLa Kyoto [4] was -0.136.

Take “MPGVIPSESNGLSRGSPSKKNRLSLKFFQKKETKRALDFTDSQENEEKASEYRASEIDQVVPAAQSSPINCEKRENLLPFVGLNNLGNTCYLNSILQVLYFCPGFKSGVKHLFNIISRKKEALKDEANQKDKGNCKEDSLASYELICSLQSLIISVEQLQASFLLNPEKYTDELATQPRRLLNTLRELNPMYEGYLQHDAQEVLQCILGNIQETCQLLKKEEVKNVAELPTKVEEIPHPKEEMNGINSIEMDSMRHSEDFKEKLPKGNGKRKSDTEFGNMKKKVKLSKEHQSLEENQRQTRSKRKATSDTLESPPKIIPKYISENESPRPSQKKSRVKINWLKSATKQPSILSKFCSLGKITTNQGVKGQSKENECDPEEDLGKCESDNTTNGCGLESPGNTVTPVNVNEVKPINKGEEQIGFELVEKLFQGQLVLRTRCLECESLTERREDFQDISVPVQEDELSKVEESSEISPEPKTEMKTLRWAISQFASVERIVGEDKYFCENCHHYTEAERSLLFDKMPEVITIHLKCFAASGLEFDCYGGGLSKINTPLLTPLKLSLEEWSTKPTNDSYGLFAVVMHSGITISSGHYTASVKVTDLNSLELDKGNFVVDQMCEIGKPEPLNEEEARGVVENYNDEEVSIRVGGNTQPSKVLNKKNVEAIGLLGGQKSKADYELYNKASNPDKVASTAFAENRNSETSDTTGTHESDRNKESSDQTGINISGFENKISYVVQSLKEYEGKWLLFDDSEVKVTEEKDFLNSLSPSTSPTSTPYLLFYKKL [USP1]”: in the series on HeLa Kyoto [1], the “solubility in G1/S (log2)” value is -0.118. This sequence returned a melting temperature in the series on HeLa Kyoto [2] (cell cycle stage: G1/S) of 48.8 °C. Besides, the thermal stability score came out at 0.238 with HeLa Kyoto [3] (setting [5]) and 1.6 in the series with HeLa Kyoto [3] (cell cycle stage: mitosis). In addition, in the series with HeLa Kyoto [4], the “solubility change mitosis (log2)” value is -0.0658.

Take “MLLSLVLHTYSMRYLLPSVVLLGTAPTYVLAWGVWRLLSAFLPARFYQALDDRLYCVYQSMVLFFFENYTGVQILLYGDLPKNKENIIYLANHQSTVDWIVADILAIRQNALGHVRYVLKEGLKWLPLYGCYFAQHGGIYVKRSAKFNEKEMRNKLQSYVDAGTPMYLVIFPEGTRYNPEQTKVLSASQAFAAQRGLAVLKHVLTPRIKATHVAFDCMKNYLDAIYDVTVVYEGKDDGGQRRESPTMTEFLCKECPKIHIHIDRIDKKDVPEEQEHMRRWLHERFEIKDKMLIEFYESPDPERRKRFPGKSVNSKLSIKKTLPSMLILSGLTAGMLMTDAGRKLYVNTWIYGTLLGCLWVTIKA [AGPAT5]”: the “solubility in G1/S (log2)” value in the series with HeLa Kyoto [1] is -0.125. The melting temperature turned out to be 52.1 °C in the series on HeLa Kyoto [2] (cell cycle stage: G1/S) and 52.6 °C in the series on HeLa Kyoto [2] (cell cycle stage: mitosis). The thermal stability score is 0.0279 with HeLa Kyoto [3] (setting [5]) and -1.01 in the series on HeLa Kyoto [3] (cell cycle stage: mitosis). Besides, the “solubility change mitosis (log2)” value with HeLa Kyoto [4] is -0.0679.

Take “MPATLLRAVARSHHILSKAHQCRRIGHLMLKPLKEFENTTCSTLTIRQSLDLFLPDKTASGLNKSQILEMNQKKSDTSMLSPLNAARCQDEKAHLPTMKSFGTHRRVTHKPNLLGSKWFIKILKRHFSSVSTETFVPKQDFPQVKRPLKASRTRQPSRTNLPVLSVNEDLMHCTAFATADEYHLGNLSQDLASHGYVEVTSLPRDAANILVMGVENSAKEGDPGTIFFFREGAAVFWNVKDKTMKHVMKVLEKHEIQPYEIALVHWENEELNYIKIEGQSKLHRGEIKLNSELDLDDAILEKFAFSNALCLSVKLAIWEASLDKFIESIQSIPEALKAGKKVKLSHEEVMQKIGELFALRHRINLSSDFLITPDFYWDRENLEGLYDKTCQFLSIGRRVKVMNEKLQHCMELTDLMRNHLNEKRALRLEWMIVILITIEVMFELGRVFF [RMND1]”: in the series on HeLa Kyoto [1], the “solubility in G1/S (log2)” value was -0.145. In addition, the melting temperature in the series with HeLa Kyoto [2] (cell cycle stage: G1/S) worked out at 52.1 °C; with HeLa Kyoto [2] (cell cycle stage: mitosis), 51.2 °C. For the same sequence, the thermal stability score in the series on HeLa Kyoto [3] (setting [5]) was -1; with HeLa Kyoto [3] (cell cycle stage: mitosis), -0.87. Moreover, the “solubility change mitosis (log2)” value in the series on HeLa Kyoto [4] was -0.125.

These data come from the supplement of paper PMC5998384.
